According to paper PMC3085272:

Target: Rac1-GMPPNP (UniProt P63000)
Assay: equilibrium dialysis

- Kd: 1000 to 2000 nM
Substance: ΔWRC (VCA-deleted WRC, containing WAVE1(1-186)) (from UniProt Q7L576;Q9Y2A7;Q92558;Q9NYB9;Q8WUW1) (complex)
